# Results: paper PMC7826288, “Dynamics of TRF1 organizing a single human telomere” (Nucleic Acids Research, 2020)
# B1: human TRF1(3-439) (natural protein, UniProt P54274 3-439, looked up)
# chain: EDVSSAAPSPRGCADGRDADPTEEQMAETERNDEEQFECQELLECQVQVGAPEEEEEEEEDAGLVAEAEAVAAGWMLDFLCLSLCRAFRDGRSEDFRRTRNSAEAIIHGLSSLTACQLRTIYICQFLTRIAAGKTLDAQFENDERITPLESALMIWGSIEKEHDKLHEEIQNLIKIQAIAVCMENGNFKEAEEVFERIFGDPNSHMPFKSKLLMIISQKDTFHSFFQHFSYNHMMEKIKSYVNYVLSEKSSTFLMKAAAKVVESKRTRTITSQDKPSGNDVEMETEANLDTRKSVSDKQSAVTESSEGTVSLLRSHKNLFLSKLQHGTQQQDLNKKERRVGTPQSTKKKKESRRATESRIPVSKSQPVTPEKHRARKRQAWLWEEDKNLRSGVRKYGEGNWSKILLHYKFNNRTSVMLKDRWRTMKKLKLISSDSED
# notes: also called TRF1 dimer; source: E. coli BL21(DE3), purified (Ni-NTA, 3C protease, HiTrap Heparin, Superdex 200)
# Biological target: the molecule itself
# Assay: SEC; Superdex 200 Increase 10/300 GL, 20 mM Tris-HCl (pH 8.0), 200 mM NaCl; molecular weight assessed against standard molecular markers
protein,measurement,value
B1,stoichiometry N,2
